T1: THAP1(1-213)-Fc fusion protein (human, UniProt Q9NVV9 1-213)
T1 sequence (looked up): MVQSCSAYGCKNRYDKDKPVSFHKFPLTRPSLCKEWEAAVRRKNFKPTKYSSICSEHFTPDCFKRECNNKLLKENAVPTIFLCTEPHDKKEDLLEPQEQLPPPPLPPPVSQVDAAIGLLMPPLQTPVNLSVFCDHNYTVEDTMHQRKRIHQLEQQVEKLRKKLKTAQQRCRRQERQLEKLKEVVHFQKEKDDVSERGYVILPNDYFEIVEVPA

B1: Chemotrap-1 (THAP1(140-213)-Fc), purified from CHO cells (Fc fusion, human, UniProt Q9NVV9 140-213, looked up)
chain: EDTMHQRKRIHQLEQQVEKLRKKLKTAQQRCRRQERQLEKLKEVVHFQKEKDDVSERGYVILPNDYFEIVEVPA
B2: purified recombinant human CCL21 (Chemicon) (ligand, UniProt O00585 24-134, looked up)
chain: SDGGAQDCCLKYSQRKIPAKVVRSYRKQEPSLGCSIPAILFLPRKRSQAELCADPKELWVQQLMQHLDKTPSPQKPAQGCRKDRGASKTGKKGKGSKGCKRTERSQTPKGP

Columns and labels:
[1] = molecular target: B2; assay: SPR
[2] = molecular target: T1, THAP1(1-213)-Fc fusion protein; assay: SPR

Kd [1] [nM] | Kd [2] [nM] | Binder
102 | – | B1
– | 87 | B2

Reference: article PMC3034641 (Cancer research, 2010)
